Measurements from patent US20240209104A1 (SHANGHAI ACEMAB, published 2024).

Assays:
[1] = target: T1, OX40 on OX40 over-expressed cells (UniProt P43489 29-277); test: flow cytometry, supernatant on OX40 over-expressed cells
T1 construct: whole, on cells; human implied; also called OX40 expressed on the surface of OX40 expressing cell
T1 sequence (looked up): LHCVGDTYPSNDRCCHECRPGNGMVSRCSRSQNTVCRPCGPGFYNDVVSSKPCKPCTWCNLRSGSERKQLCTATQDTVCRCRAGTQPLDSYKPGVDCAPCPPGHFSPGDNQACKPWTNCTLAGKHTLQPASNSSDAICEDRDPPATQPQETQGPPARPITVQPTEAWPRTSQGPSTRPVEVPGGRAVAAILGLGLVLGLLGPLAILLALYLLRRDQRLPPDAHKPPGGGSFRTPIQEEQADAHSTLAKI
Experimental: After collecting OX40 over-expressed cells by 200G centrifugation, wash them with PBS containing 3% FCS, and then resuspend them in 2.5 ml of PBS containing 3% FCS. […] Finally, the cells were resuspended in […] of PBS containing 3% FCS for detection by flow cytometry.

hOX40-EC-His [2] = target: T2, hOX40-EC-His (human, UniProt P43489 29-214); test: ELISA, supernatant stoste, coated OX40 (CK60)
T2 construct: extracellular domain; bought protein; also called recombinant human OX40 antigen protein; human OX40 extracellular segment antigen; not shown: 6 His label
T2 sequence (looked up): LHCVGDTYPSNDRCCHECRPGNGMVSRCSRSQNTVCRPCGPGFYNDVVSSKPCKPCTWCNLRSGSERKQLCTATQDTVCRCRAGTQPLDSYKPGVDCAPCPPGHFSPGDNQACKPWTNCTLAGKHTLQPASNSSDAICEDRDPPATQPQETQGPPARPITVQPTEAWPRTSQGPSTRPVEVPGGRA

hOX40-EC-His [3] = target: T2, hOX40-EC-His; test: ELISA, supernatant 1:100, coated hOX40-EC-His
hOX40-EC-His [4] = target: T2, hOX40-EC-His; test: ELISA, supernatant diluted 100 times, coated OX40 (CK60)
hOX40-EC-His [5] = target: T2, hOX40-EC-His; test: ELISA, supernatant diluted 50 times, coated OX40 (CK60)

Binder	Y586 channel PE fluorescence value [1]	450 nm light absorption (hOX40-EC-His [2]) [OD450]	IgG ELISA (1:100) (hOX40-EC-His [3]) [OD650]	450 nm light absorption (hOX40-EC-His [4]) [OD450]	450 nm light absorption (hOX40-EC-His [5]) [OD450]
30B1-3 (antibody, V domains shown, hybridoma antibody, tested as culture supernatant) VH: not shown VL: EIVLTQSPGTLSLSPGERATFSCRASQSVSGSYLAWYQQKPGQAPRLLIHGASSRATGIPDRFSGSGSGTDFTLTISRLEPEDFAVYYCLQYGSSPLTFGGGTKVEIKR	208000	2.31	2	1.89	
35B8-6 (antibody, V domains shown, hybridoma antibody, tested as culture supernatant) VH: QITLKESGPTLVKPTQTLTLTCTFSGFSLSTSAVNVGWIRQPHGKALEWLALIFWNDDKRYSPSLKNRLTITKDTSKDQVVLTMSNMDPVDTATYYCAQYNWNSSFDYWGQGTLVTVSS VL: DIQMTQSPSSLSASLGDRVTITCQASQDINTYLNWYQQKPGKAPKVLIYDASNLETGVPSRFSGSGSGTDFTFTISSLQPEDIATFYCQQYDNLITFGGGTKVEIKR	243000	1.47	2.1	0.215	
23D1-8 (antibody, V domains shown, hybridoma antibody, tested as culture supernatant) VH: QVQLVQSGAEVKKPGASVKVSCKASGYTFTGYYIHWVRQAPGQGLEWMGRINPNSGGTDFAQKFQARVTMTRDTAINIVYMELSRLRSDDTAVYYCARVVVASYYFDNWGQGTLVTVSS VL: not shown	166000	2.48	2.4	2.02	
14D3-7-3 (antibody, V domains shown, hybridoma antibody, tested as culture supernatant) VH: EVQLVESGGGLVKPGGSLRLSCAASGFTFSNAWMSWVRQAPGKGLEWVGRIKRKTDGGTTDYATPVKGRFTISRDASKNTLYLQMNSLKTEDTAVYYCTSAARRGYFDIWGRGTLVTVSS VL: EIVLTQSPGTLSLSPGERATLSCRASQSVSSRYLAWYQQKPGQAPRLLIYGASNRATGMPDRFSGSGSGTDFTLTISRLEPEDFAMYYCQQYGSSPITFGQGTRLEIKR	274000		2.2		2.01
20G6-7-1 (antibody, V domains shown, hybridoma antibody, tested as culture supernatant) VH: QVQLQESGPGLVKPSGTLSLTCAVSGGSISSSNWWSWVRQPPGKGLEWIGEIYHSGNTNYNPSLKSRVTISVDKSKNQFSLKLSSVTAADTAVYYCARGGTTFDYWGQGTLVTVSS VL: EIVLMQYPGTLSLSSGERATLSCRASQSVSSRYLAWYQQKPGQAPRLLIYGASNRASGMPDRFSGSGSGTEFTLTISSLEPEDFAMYYCQQYGSSPITFGQGTRVEIKR	352000				2.21
23C4-1-5 (antibody, V domains shown, hybridoma antibody, tested as culture supernatant) VH: QVQLQESGPGLVKPSGTLSLTCAVSGGSISSSNWWSWVRQPPGKGLEWIGEIYHSGSTTYNPSLKSRVTISVDKSKSQISLKLTSVTAADTAVYYCARGDVLLWFGGRGTLVTVSS VL: EIVLTQSPGTLSLSPGERASLSCRASQSVSSNYLAWYQQKPGQTPRLLIYGASIRATGIPDRFSGSGSGTDFTLIISRLEPEDFAVYYCQQYSSSPITFGQGTRLEIKR	63900		2.4		2.63
16E4-10-5 (antibody, V domains shown, hybridoma antibody, tested as culture supernatant) VH: QVQLQESGPGLVKPSGTLSLTCDVSGGSISSSNWWSWVRQPPGKGLEWIGEIYHSGSTNYNPSLKSRVTISVDKSKNQVSLKLNSVTAADTAVYYCARGDILLWFGGQGTLVTVSS VL: EIVLTQSPGTLSLSPGERATLSCRASQSVSSRYLAWYQQKPGQAPRLLIYGASNRATGMPDRFSGSGSGTDFTLTISRLEPEDFAVYYCQQYGSSPITFGQGTRLEIKR	377000				2.53
24B9-10 (antibody, V domains shown, hybridoma antibody, tested as culture supernatant) VH: QVQLQESGPGLVKPSGTLSLTCAVSGGSISSSNWWTWVRQPPGKGLEWIGEIYHSGSTNYNPSLKSRVTISVDKSKNQFSLKLSSVTAADTAVYYCARTGPIVTTEYWGQGTLVTVSS VL: EIVLTQSPGTLSLSPGERATLSCRASQSVSSGYLAWYQQKPGQAPRLLIYGASIRATGIPDRFSGSGSGTDFTLTISRLEPEDFALYYCQQYGSSPLTFGGGTKVEIKR	313000	2.19	0.2	0.574	
1F10-12-3 (antibody, V domains shown, hybridoma antibody, tested as culture supernatant) VH: QVQLQESGPGLVKPSGTLSLTCAVSGGSISNSNWWNWVRQPPGRGLEWIGEIYHSGSTNYNPSLKSRVTISVDKSKNQFSLKLTSVTAADTAVYYCARYSTPFFDYWGQGNLVTVSS VL: DIQMTQSPSSLSASVGDRVTITCRASQSISNYLNWYQQKQGKAPKLLIYGASSLQSGVPSRFSGSGSGTDFTLTINSLQPEDFATYCCQQSYNNPLTFGGGTKVEIKR	170000		2.3		2.17
38D9-12 (antibody, V domains shown, hybridoma antibody, tested as culture supernatant) VH: QVQLQESGPGLVKPSGTLSLTCAVSGDSISSTNWWSWVRQPPGKGLEWIGEINHNGSTYYNPSLKSRVTISVDKSKNQFSLKLRSVTAADTAVYYCAREDYYYMDVWGKGTTVTVSS VL: DIQMTQSPSSLSASVGDRVTITCRTSQGIWNDLGWYQQKPGKAPKRLIYAASSLQSGVPSRFSGSESGTEFTLTISSLQPEDFATYYCLQYNNYPLTFGGGTKVEIKR	243000	2.24	2.4	2.1	
55H6-6 (antibody, V domains shown, hybridoma antibody, tested as culture supernatant) VH: QVQLVQSGAEVKKPGASVKVSCKASGYTFTSYGISWVRQAPGQGLEWMGWISAYNGHTNYAQKLQGRVTMTTDTSTNTAYMELWSLRSDDTAVYYCTSDYGDYWGQGTLVTVSS VL: DVVVTQSPLSLPVTLGQPASISCRSSQSLVYSDGNTNLYWFQQRPGQSPRRLIYQVSNRDSGVPDRFSGSGSGTDFTLKISRVEAEDVGVYYCMQGTHWPPALTFGGGTEVEIKR	479000	2.43	0.1	1.9	
21D2-3 (antibody, V domains shown, hybridoma antibody, tested as culture supernatant) VH: QVQLVESGGGLVKPGGSLRLSCAASGFTFSDYYMSWIRQAPGKGLEWVSYISSSGTTIYCADSVKGRFTISRDNAKNSLYLQMNSLRAEDTAVYYCARDSSTWYEGNYFDYWGQGTLVTVSS VL: not shown	202000	2.03	2.1	1.38	
